Experimental findings from publication PMC5527709 (Drug delivery and translational research, 2013) are described below.

Assay [1] deals with T1, human CD133 protein (coated on ELISA wells) (human) (UniProt O43490).
T1 sequence: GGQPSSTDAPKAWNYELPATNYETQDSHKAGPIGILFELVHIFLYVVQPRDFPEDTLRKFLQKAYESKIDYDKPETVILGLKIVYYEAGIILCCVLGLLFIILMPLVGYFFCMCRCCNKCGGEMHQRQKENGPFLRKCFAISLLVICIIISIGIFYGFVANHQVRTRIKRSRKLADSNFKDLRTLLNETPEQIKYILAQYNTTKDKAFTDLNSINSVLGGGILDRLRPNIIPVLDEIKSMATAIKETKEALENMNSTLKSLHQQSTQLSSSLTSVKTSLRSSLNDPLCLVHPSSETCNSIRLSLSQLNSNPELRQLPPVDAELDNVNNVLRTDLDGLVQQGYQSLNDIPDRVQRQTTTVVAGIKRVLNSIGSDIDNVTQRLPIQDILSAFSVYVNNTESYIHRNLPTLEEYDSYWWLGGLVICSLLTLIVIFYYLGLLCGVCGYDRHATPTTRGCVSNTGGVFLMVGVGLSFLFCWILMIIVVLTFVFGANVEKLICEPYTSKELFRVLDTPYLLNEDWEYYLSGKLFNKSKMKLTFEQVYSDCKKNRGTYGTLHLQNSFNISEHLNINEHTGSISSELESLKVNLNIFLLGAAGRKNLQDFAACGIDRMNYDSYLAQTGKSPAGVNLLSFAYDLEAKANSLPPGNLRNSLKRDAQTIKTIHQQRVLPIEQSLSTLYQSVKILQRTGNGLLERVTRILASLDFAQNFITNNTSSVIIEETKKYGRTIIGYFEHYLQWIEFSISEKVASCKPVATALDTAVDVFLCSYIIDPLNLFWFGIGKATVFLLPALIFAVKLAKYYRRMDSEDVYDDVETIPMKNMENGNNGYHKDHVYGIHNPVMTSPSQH
Briefly: ELISA. (ELISA stands for enzyme-linked immunosorbent assay.)

Assay [2] addresses human CD133 on Caco-2 cells (Homo sapiens, endogenous in Caco-2, UniProt O43490). Briefly: flow cytometry on cells. (A flow cytometer gives signals particle by particle.)

B1: anti-CD133 scFv clone 11, HA-tagged, secreted into bacterial culture supernatant (scFv, V domains shown)
VH: EVKLVESGPELKKPGETVKISCKASGYTFTDYSMHWVNQAPGKGLKWMGWINTETGEPSYADDFKGRFAFSLETSASTAYLQINNLKNEDTATYFCATDYGDYFDYWGQGTTLTVSS
VL: DIVLSQSPAIMSASPGEKVTISCSASSSVSYMYWYQQKPGSSPKPWIYRTSNLASGVPARFSGSGSGTSYSLTISSMEAEDAATYYCQQYHSYPPTFGAGTKLELK
Take B1: the absorbance at 450 nm in assay [1] was 0.9 AU.

B2: anti-CD133 scFv (clone 11) without HA epitope tag, FITC-labelled (scFv, V domains shown)
VH: EVKLVESGPELKKPGETVKISCKASGYTFTDYSMHWVNQAPGKGLKWMGWINTETGEPSYADDFKGRFAFSLETSASTAYLQINNLKNEDTATYFCATDYGDYFDYWGQGTTLTVSS
VL: DIVLSQSPAIMSASPGEKVTISCSASSSVSYMYWYQQKPGSSPKPWIYRTSNLASGVPARFSGSGSGTSYSLTISSMEAEDAATYYCQQYHSYPPTFGAGTKLELK
Take B2: the binding result in assay [2] is “binds”.
